Test results reported in the Immune Epitope Database (IEDB).
Each block holds one sequence with its values, some of them ahead of it.

Legend:
HLA-B*57:01 [1] = test: IEDB peptide-MHC binding, purified MHC/competitive/radioactivity; filed as Kd, often an IC50 or EC50 that approximates it; ≥ and ≤ were set here for values at or beyond the usual limits of such assays
HLA-B*57:01 [2] = test: IEDB peptide-MHC binding, purified MHC/competitive/radioactivity; ≥ and ≤ were set here for values at or beyond the usual limits of such assays
[3] = source organism: Simian immunodeficiency virus
[4] = source organism: Human immunodeficiency virus 2
[5] = source organism: Mammarenavirus choriomeningitidis

Sequence: QAQLNAWGC
- Kd (HLA-B*57:01 [1]; [3]): ≥ 40000 nM

Sequence: LKSLYNTVC
- Kd (HLA-B*57:01 [1]; [3]): ≥ 30000 nM

- IC50 (HLA-B*57:01 [2]; source organism: Homo sapiens): 100 nM
Sequence: ATIKLQSTV

- Kd (HLA-B*57:01 [1]; source organism: Homo sapiens): ≥ 70000 nM
Sequence: KVAKVEPAV

- IC50 (HLA-B*57:01 [2]; source organism: Homo sapiens): 10000 nM
Sequence: KIYEGQVEV

Sequence: LLHSTYFPC
- Kd (HLA-B*57:01 [1]; [3]): ≥ 50000 nM

Sequence: KVGWAWWTC
- IC50 (HLA-B*57:01 [2]; [4]): 3000 nM

- IC50 (HLA-B*57:01 [2]; source organism: Homo sapiens): 2000 nM
Sequence: VTTDIQVKV

Sequence: SSCIAQDNC
- Kd (HLA-B*57:01 [1]; [3]): ≥ 50000 nM

- IC50 (HLA-B*57:01 [2]; source organism: Homo sapiens): 10000 nM
Sequence: KSNGTIIHV

- Kd (HLA-B*57:01 [1]; source organism: Homo sapiens): ≥ 70000 nM
Sequence: RVAGIHKKV

Sequence: MFEALPHII
- Kd (HLA-B*57:01 [1]; [5]): ≥ 50000 nM

- IC50 (HLA-B*57:01 [2]; source organism: Homo sapiens): 200 nM
Sequence: RTFHHGVRV

Sequence: IVSSLHLSI
- IC50 (HLA-B*57:01 [2]; [5]): 1000 nM

Sequence: SIFLHLVKI
- IC50 (HLA-B*57:01 [2]; [5]): 500 nM

- IC50 (HLA-B*57:01 [2]; source organism: Homo sapiens): 13.7 nM
Sequence: RARQLNYTI

Sequence: MYGLKGPDI
- Kd (HLA-B*57:01 [1]; [5]): ≥ 50000 nM

Sequence: ATCGIFALI
- IC50 (HLA-B*57:01 [2]; [5]): 200 nM

- IC50 (HLA-B*57:01 [2]; source organism: Homo sapiens): 1000 nM
Sequence: TVAPFNPTV

Sequence: WIQLGLQKC
- Kd (HLA-B*57:01 [1]; [4]): ≥ 10000 nM
